The target in data set [1] is CD4-HA-CIBN-2xMKII-NNES-heLOV-GAL4 (FLARE transcription factor component) (Arabidopsis thaliana). The data set is described as follows: cell-based or functional assay.
Data set [2] has as its target B2Ar-heLOV-TEVcs-Gal4-V5 (SPARK transcription factor component) (UniProt P07550). The data set is described as follows: cell-based or functional assay.
Data set [3] has as its target MBP-TEVcs(ENLYFQ/S)-eGFP [MBP: P0AEX9].
For data set [4] the target is unchanged. Kind of data set: Michaelis-Menten fit of the in-gel fluorescence cleavage assay, purified protease with the substrate titrated; the filing defines affinity as Km.
Data set [5] concerns the target MBP-TEVcs(ENLYFQ/M)-eGFP [MBP: P0AEX9].

For “eGFP-CaM-TEVΔ/S219V + S153N (FLARE protease component with uTEV1Δ) (enzyme)”, in data set [1], the FLARE mCherry reporter, high/low Ca+2 signal ratio worked out at 12 and the FLARE mCherry reporter, signal-to-background ratio was determined as 12.2.

For the molecule “HA-arrestin-TEVΔ/S153N (SPARK protease component with uTEV1Δ) (enzyme)”, the SPARK mCherry reporter, +/-agonist signal ratio in data set [2] stood at 20.7.

B1: uTEV3, full-length (HIS6-MBP-TEV I138T S153N T180A, S219V) (protein)
chain: GESLFKGPRDYNPISSTICHLTNESDGHTTSLYGIGFGPFIITNKHLFRRNNGTLLVQSLHGVFKVKNTTTLQQHLIDGRDMIIIRMPKDFPPFPQKLKFREPQREERICLVTTNFQTKSMSSMVSDTSCTFPSSDGTFWKHWIQTKDGQCGNPLVSTRDGFIVGIHSASNFTNTNNYFASVPKNFMELLTNQEAQQWVSGWRLNADSVLWGGHKVFMVKPEEPFQPVKEATQLMNELVYSQ
On to B1, for which the “kcat/Km, fold against wild-type TEV” value in data set [3] was “a 2.8-fold increase in kcat/Km”. Besides, the “fold improvement of Km against wild-type TEV” value in data set [4] is “Km improved by 3-fold”.

B2: wild-type TEVΔ (TEVΔ-S219V), purified with His tag from bacteria (protein)
chain: HHHHHHGESLFKGPRDYNPISSTICHLTNESDGHTTSLYGIGFGPFIITNKHLFRRNNGTLLVQSLHGVFKVKNTTTLQQHLIDGRDMIIIRMPKDFPPFPQKLKFREPQREERICLVTTNFQTKSMSSMVSDTSCTFPSSDGIFWKHWIQTKDGQCGSPLVSTRDGFIVGIHSASNFTNTNNYFTSVPKNFMELLTNQEAQQWVSGWRLNADSVLWGGHKVFMV
With B2, the “turnover rate (kapp)” value in data set [5] is 0.01 s⁻¹.

B3: uTEV1Δ (TEVΔ/S219V + S153N), purified with His tag from bacteria (protein)
chain: HHHHHHGESLFKGPRDYNPISSTICHLTNESDGHTTSLYGIGFGPFIITNKHLFRRNNGTLLVQSLHGVFKVKNTTTLQQHLIDGRDMIIIRMPKDFPPFPQKLKFREPQREERICLVTTNFQTKSMSSMVSDTSCTFPSSDGIFWKHWIQTKDGQCGNPLVSTRDGFIVGIHSASNFTNTNNYFTSVPKNFMELLTNQEAQQWVSGWRLNADSVLWGGHKVFMV
Turning to B3, in data set [5], the “turnover rate (kapp)” value worked out at 0.054 s⁻¹; the “turnover rate (kapp), fold against wild-type TEVΔ” value is 5.4- and 6.2-fold higher than wild-type.

B4: uTEV2Δ (TEVΔ/S219V + T30A + S153N), purified with His tag from bacteria (protein)
chain: HHHHHHGESLFKGPRDYNPISSTICHLTNESDGHTASLYGIGFGPFIITNKHLFRRNNGTLLVQSLHGVFKVKNTTTLQQHLIDGRDMIIIRMPKDFPPFPQKLKFREPQREERICLVTTNFQTKSMSSMVSDTSCTFPSSDGIFWKHWIQTKDGQCGNPLVSTRDGFIVGIHSASNFTNTNNYFTSVPKNFMELLTNQEAQQWVSGWRLNADSVLWGGHKVFMV
In the case of B4, in data set [5], the “turnover rate (kapp)” value is 0.062 s⁻¹; the “turnover rate (kapp), fold against wild-type TEVΔ” value is 5.4- and 6.2-fold higher than wild-type.
